Laboratory results published in paper PMC12641570, “Surface‐modified protein crowders influence mutant huntingtin exon 1 aggregation via crowding effects, crowder association, and crowder solution stability” (Protein Science : A Publication of the Protein Society, 2025).

Target: T1, bovine serum albumin cationized by reaction with ethylenediamine, net surface charge +78e (BSA +78e) (bovine, UniProt P02769 25-607, reacted with ethylenediamine; net surface charge +78e (±3e))
T1 construct: bovine serum albumin (BSA), 66 kDa protein; Chemically surface-modified; DLS radius is 16 nm, from which the authors infer oligomers; also called positive BSA (+78e); cationized BSA; source: BSA modified by reaction with ethylenediamine (published procedure); chemicals bought: Sigma‐Aldrich unless mentioned otherwise
Assay: MST; NanoTemper Monolith; about 10 μM mHttex1‐VC (target, mCherry fluorescence read) with different concentrations of BSA (ligand); within 1 h after cleaving MBP; apparent
Conditions: both partners purified

- Kd: > 1000 µM
B1: mutant huntingtin exon 1 (45Q) fused to mVenus/mCherry (mHttex1‐VC), after cleavage of MBP (domain or fragment)
chain: MATLEKLMKAFESLKSFQQQQQQQQQQQQQQQQQQQQQQQQQQQQQQQQQQQQQQQQQQQQQPPPPPPPPPPPQLPQPPPQAQPLLPQPQPPPPPPPPPPGPAVAEEPLHRP
